Reference: US20230265151A1, “GIP/GLP1 CO-AGONIST COMPOUNDS” (priority 2020, published 2023)
*1 amine or outer side, *2 acyl side, *3 side chain or, on linkers, in order; H or OH if unused. Where no end group is shown, it is not given here. Side-chain parts run from the residue outwards. [ ]: non-standard residue; d: D form. The star is where a group is joined. Decanoyl(10-(4-HOOC-PhO)) = O=C(O)c1ccc(OCCCCCCCCCC(=O)*)cc1; αMePhe(2-F) = C[C@](N)(Cc1ccccc1F)C(=O)O; γGlu = O=C(O)[C@H](CCC(=O)[*:2])N[*:1]; C14 diacid = O=C(O)CCCCCCCCCCCCC(=O)*; αMeY = C[C@](N)(Cc1ccc(O)cc1)C(=O)O; αMeL = CC(C)C[C@](C)(N)C(=O)O; Orn = NCCC[C@H](N)C(=O)O; AEEA = NCCOCCOCC(=O)O; Aib = CC(C)(N)C(=O)O

T1: human GIP receptor (human) (UniProt P48546)
T1 sequence (looked up): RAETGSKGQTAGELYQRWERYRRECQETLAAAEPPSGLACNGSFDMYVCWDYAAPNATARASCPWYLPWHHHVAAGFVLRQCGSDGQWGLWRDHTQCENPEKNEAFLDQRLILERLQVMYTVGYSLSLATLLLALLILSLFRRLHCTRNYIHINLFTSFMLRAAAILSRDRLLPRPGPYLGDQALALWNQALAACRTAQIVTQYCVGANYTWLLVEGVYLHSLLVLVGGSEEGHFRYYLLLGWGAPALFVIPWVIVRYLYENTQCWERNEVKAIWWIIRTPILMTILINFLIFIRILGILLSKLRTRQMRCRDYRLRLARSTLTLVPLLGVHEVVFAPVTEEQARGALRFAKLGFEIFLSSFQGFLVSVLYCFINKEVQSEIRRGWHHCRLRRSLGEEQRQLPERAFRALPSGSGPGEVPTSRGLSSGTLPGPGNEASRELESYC

T2: human GIP receptor (human, UniProt P48546 22-466)
T2 sequence (looked up): T1 sequence (looked up)

B1: Example 399 (peptide)
peptide: Y[Aib]EGT[αMePhe(2-F)]TSDV[Aib]I[αMeL]LD[Orn]K([AEEA-γGlu-C14 diacid])AQ[Aib]EFI[dE][αMeY]LIK([AEEA-γGlu-C14 diacid])GGPSSGAPPPS-NH2
modifications: N-terminus assumed
SMILES: CC[C@H](C)[C@H](NC(=O)[C@H](CC(C)C)NC(=O)[C@](C)(Cc1ccc(O)cc1)NC(=O)[C@@H](CCC(=O)O)NC(=O)[C@@H](NC(=O)[C@H](Cc1ccccc1)NC(=O)[C@H](CCC(=O)O)NC(=O)C(C)(C)NC(=O)[C@H](CCC(N)=O)NC(=O)[C@H](C)NC(=O)[C@H](CCCCNC(=O)COCCOCCNC(=O)CC[C@H](NC(=O)CCCCCCCCCCCCC(=O)O)C(=O)O)NC(=O)[C@H](CCCN)NC(=O)[C@H](CC(=O)O)NC(=O)[C@H](CC(C)C)NC(=O)[C@](C)(CC(C)C)NC(=O)[C@@H](NC(=O)C(C)(C)NC(=O)[C@@H](NC(=O)[C@H](CC(=O)O)NC(=O)[C@H](CO)NC(=O)[C@@H](NC(=O)[C@](C)(Cc1ccccc1F)NC(=O)[C@@H](NC(=O)CNC(=O)[C@H](CCC(=O)O)NC(=O)C(C)(C)NC(=O)[C@@H](N)Cc1ccc(O)cc1)[C@@H](C)O)[C@@H](C)O)C(C)C)[C@@H](C)CC)[C@@H](C)CC)C(=O)N[C@@H](CCCCNC(=O)COCCOCCNC(=O)CC[C@H](NC(=O)CCCCCCCCCCCCC(=O)O)C(=O)O)C(=O)NCC(=O)NCC(=O)N1CCC[C@H]1C(=O)N[C@@H](CO)C(=O)N[C@@H](CO)C(=O)NCC(=O)N[C@@H](C)C(=O)N1CCC[C@H]1C(=O)N1CCC[C@H]1C(=O)N1CCC[C@H]1C(=O)N[C@@H](CO)C(N)=O

Each binder was assayed against hGLP-1R (Homo sapiens, UniProt P43220) (assay: cell-based or functional assay).
For B1, the cAMP EC50 was 0.259 nM and the cAMP Emax was 91.9%.
Y[Aib]EGT[αMePhe(2-F)]TSDV[Aib]I[αMeL]LD[Orn]K([AEEA-AEEA-Decanoyl(10-(4-HOOC-PhO))])AQ[Aib]EFI[dE][αMeY]LIK([AEEA-AEEA-Decanoyl(10-(4-HOOC-PhO))])GGPSSGAPPPS-NH2 [Example 397] showed a cAMP EC50 of 0.166 nM and a cAMP Emax of 95.8%.
In the case of Y[Aib]EGT[αMePhe(2-F)]TSDV[Aib]I[αMeL]LD[Orn]K([AEEA-AEEA-γGlu-Decanoyl(10-(4-HOOC-PhO))])AQ[Aib]EFI[dE][αMeY]LIEGGPSSGAPPPSK([AEEA-AEEA-γGlu-Decanoyl(10-(4-HOOC-PhO))])-NH2 [Example 380], the cAMP EC50 is reported as 0.176 nM and the cAMP Emax is reported as 96.2%.
Y[Aib]EGT[αMePhe(2-F)]TSDV[Aib]I[αMeL]LD[Orn]IAQ[Aib]K([AEEA-AEEA-γGlu-Decanoyl(10-(4-HOOC-PhO))])FI[dE][αMeY]LIEGGPSSGAPPPSK([AEEA-AEEA-γGlu-Decanoyl(10-(4-HOOC-PhO))])-NH2 [Example 383] was tested, and the cAMP EC50 was 0.306 nM and the cAMP Emax was 105%.

Each binder was assayed against T1, human GIP receptor (human) (assay: cell-based or functional assay).
B1 gave a cAMP EC50 of 0.0186 nM and a cAMP Emax of 98.4%.
Binder Y[Aib]EGT[αMePhe(2-F)]TSDV[Aib]I[αMeL]LD[Orn]K([AEEA-AEEA-Decanoyl(10-(4-HOOC-PhO))])AQ[Aib]EFI[dE][αMeY]LIK([AEEA-AEEA-Decanoyl(10-(4-HOOC-PhO))])GGPSSGAPPPS-NH2 [Example 397] has a cAMP EC50 of 0.0293 nM and a cAMP Emax of 94.6%.
Y[Aib]EGT[αMePhe(2-F)]TSDV[Aib]I[αMeL]LD[Orn]K([AEEA-AEEA-γGlu-Decanoyl(10-(4-HOOC-PhO))])AQ[Aib]EFI[dE][αMeY]LIEGGPSSGAPPPSK([AEEA-AEEA-γGlu-Decanoyl(10-(4-HOOC-PhO))])-NH2 [Example 380] showed a cAMP EC50 of 0.0209 nM and a cAMP Emax of 100%.
Binder Y[Aib]EGT[αMePhe(2-F)]TSDV[Aib]I[αMeL]LD[Orn]IAQ[Aib]K([AEEA-AEEA-γGlu-Decanoyl(10-(4-HOOC-PhO))])FI[dE][αMeY]LIEGGPSSGAPPPSK([AEEA-AEEA-γGlu-Decanoyl(10-(4-HOOC-PhO))])-NH2 [Example 383] has a cAMP EC50 of 0.0147 nM and a cAMP Emax of 100%.

The binders below were run against human glucagon receptor (human) (UniProt P47871) (assay: cell-based or functional assay).
Work on B1 yielded a cAMP EC50 greater than 9.95 µM.
With Y[Aib]EGT[αMePhe(2-F)]TSDV[Aib]I[αMeL]LD[Orn]K([AEEA-AEEA-Decanoyl(10-(4-HOOC-PhO))])AQ[Aib]EFI[dE][αMeY]LIK([AEEA-AEEA-Decanoyl(10-(4-HOOC-PhO))])GGPSSGAPPPS-NH2 [Example 397] the cAMP EC50 was greater than 9.95 µM.
Y[Aib]EGT[αMePhe(2-F)]TSDV[Aib]I[αMeL]LD[Orn]K([AEEA-AEEA-γGlu-Decanoyl(10-(4-HOOC-PhO))])AQ[Aib]EFI[dE][αMeY]LIEGGPSSGAPPPSK([AEEA-AEEA-γGlu-Decanoyl(10-(4-HOOC-PhO))])-NH2 [Example 380] gave a cAMP EC50 greater than 9.95 µM.
Work on Y[Aib]EGT[αMePhe(2-F)]TSDV[Aib]I[αMeL]LD[Orn]IAQ[Aib]K([AEEA-AEEA-γGlu-Decanoyl(10-(4-HOOC-PhO))])FI[dE][αMeY]LIEGGPSSGAPPPSK([AEEA-AEEA-γGlu-Decanoyl(10-(4-HOOC-PhO))])-NH2 [Example 383] yielded a cAMP EC50 greater than 9.95 µM.

These binders were tested against T2, human GIP receptor (assay: cell-based or functional assay).
In the case of B1, the “cAMP EC50 (1.0% HSA)” value is reported as 16.2 nM and the “cAMP Emax (1.0% HSA)” value is reported as 86.8%.
In the case of Y[Aib]EGT[αMePhe(2-F)]TSDV[Aib]I[αMeL]LD[Orn]K([AEEA-AEEA-Decanoyl(10-(4-HOOC-PhO))])AQ[Aib]EFI[dE][αMeY]LIK([AEEA-AEEA-Decanoyl(10-(4-HOOC-PhO))])GGPSSGAPPPS-NH2 [Example 397], the “cAMP EC50 (1.0% HSA)” value is reported as 1.92 nM and the “cAMP Emax (1.0% HSA)” value is reported as 84.5%.
Y[Aib]EGT[αMePhe(2-F)]TSDV[Aib]I[αMeL]LD[Orn]K([AEEA-AEEA-γGlu-Decanoyl(10-(4-HOOC-PhO))])AQ[Aib]EFI[dE][αMeY]LIEGGPSSGAPPPSK([AEEA-AEEA-γGlu-Decanoyl(10-(4-HOOC-PhO))])-NH2 [Example 380] was tested, and the “cAMP EC50 (1.0% HSA)” value was 9.23 nM and the “cAMP Emax (1.0% HSA)” value was 93.5%.
Y[Aib]EGT[αMePhe(2-F)]TSDV[Aib]I[αMeL]LD[Orn]IAQ[Aib]K([AEEA-AEEA-γGlu-Decanoyl(10-(4-HOOC-PhO))])FI[dE][αMeY]LIEGGPSSGAPPPSK([AEEA-AEEA-γGlu-Decanoyl(10-(4-HOOC-PhO))])-NH2 [Example 383] was tested, and the “cAMP EC50 (1.0% HSA)” value was 10.7 nM and the “cAMP Emax (1.0% HSA)” value was 82.8%.

Each binder was assayed against human GLP-1 receptor (human, UniProt P43220 24-463) (assay: cell-based or functional assay).
For B1, the “cAMP EC50 (1.0% HSA)” value was 43.6 nM and the “cAMP Emax (1.0% HSA)” value was 89.7%.
For Y[Aib]EGT[αMePhe(2-F)]TSDV[Aib]I[αMeL]LD[Orn]K([AEEA-AEEA-Decanoyl(10-(4-HOOC-PhO))])AQ[Aib]EFI[dE][αMeY]LIK([AEEA-AEEA-Decanoyl(10-(4-HOOC-PhO))])GGPSSGAPPPS-NH2 [Example 397], the “cAMP EC50 (1.0% HSA)” value was 7.17 nM.
Y[Aib]EGT[αMePhe(2-F)]TSDV[Aib]I[αMeL]LD[Orn]K([AEEA-AEEA-γGlu-Decanoyl(10-(4-HOOC-PhO))])AQ[Aib]EFI[dE][αMeY]LIEGGPSSGAPPPSK([AEEA-AEEA-γGlu-Decanoyl(10-(4-HOOC-PhO))])-NH2 [Example 380] was tested, and the “cAMP EC50 (1.0% HSA)” value was 28 nM and the “cAMP Emax (1.0% HSA)” value was 94.5%.
In the case of Y[Aib]EGT[αMePhe(2-F)]TSDV[Aib]I[αMeL]LD[Orn]IAQ[Aib]K([AEEA-AEEA-γGlu-Decanoyl(10-(4-HOOC-PhO))])FI[dE][αMeY]LIEGGPSSGAPPPSK([AEEA-AEEA-γGlu-Decanoyl(10-(4-HOOC-PhO))])-NH2 [Example 383], the “cAMP EC50 (1.0% HSA)” value is reported as 92.2 nM and the “cAMP Emax (1.0% HSA)” value is reported as 102%.

These binders were tested against human glucagon receptor (human, UniProt P47871 26-477) (assay: cell-based or functional assay).
Sequence of human glucagon receptor (P47871 26-477): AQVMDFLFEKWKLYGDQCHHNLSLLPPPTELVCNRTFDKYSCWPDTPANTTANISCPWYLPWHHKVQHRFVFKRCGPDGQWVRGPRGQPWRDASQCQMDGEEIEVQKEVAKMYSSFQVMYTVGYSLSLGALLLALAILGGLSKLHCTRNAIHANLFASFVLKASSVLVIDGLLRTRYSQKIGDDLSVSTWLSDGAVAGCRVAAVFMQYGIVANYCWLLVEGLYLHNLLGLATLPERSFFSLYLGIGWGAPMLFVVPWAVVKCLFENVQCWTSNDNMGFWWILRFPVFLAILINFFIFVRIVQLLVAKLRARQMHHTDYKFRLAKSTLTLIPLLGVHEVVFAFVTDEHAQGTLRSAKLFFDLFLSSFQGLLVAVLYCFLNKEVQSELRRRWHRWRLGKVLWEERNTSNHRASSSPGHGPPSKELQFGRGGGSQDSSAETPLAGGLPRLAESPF
In the case of B1, the “cAMP EC50 (1.0% HSA)” value is reported as greater than 9.95 µM.
For Y[Aib]EGT[αMePhe(2-F)]TSDV[Aib]I[αMeL]LD[Orn]K([AEEA-AEEA-Decanoyl(10-(4-HOOC-PhO))])AQ[Aib]EFI[dE][αMeY]LIK([AEEA-AEEA-Decanoyl(10-(4-HOOC-PhO))])GGPSSGAPPPS-NH2 [Example 397], the “cAMP EC50 (1.0% HSA)” value was greater than 9.95 µM.
In the case of Y[Aib]EGT[αMePhe(2-F)]TSDV[Aib]I[αMeL]LD[Orn]K([AEEA-AEEA-γGlu-Decanoyl(10-(4-HOOC-PhO))])AQ[Aib]EFI[dE][αMeY]LIEGGPSSGAPPPSK([AEEA-AEEA-γGlu-Decanoyl(10-(4-HOOC-PhO))])-NH2 [Example 380], the “cAMP EC50 (1.0% HSA)” value is reported as greater than 9.95 µM.
In the case of Y[Aib]EGT[αMePhe(2-F)]TSDV[Aib]I[αMeL]LD[Orn]IAQ[Aib]K([AEEA-AEEA-γGlu-Decanoyl(10-(4-HOOC-PhO))])FI[dE][αMeY]LIEGGPSSGAPPPSK([AEEA-AEEA-γGlu-Decanoyl(10-(4-HOOC-PhO))])-NH2 [Example 383], the “cAMP EC50 (1.0% HSA)” value is reported as greater than 9.95 µM.
